Patent US20230078265A1, “METHODS AND COMPOSITIONS FOR EDITING NUCLEOTIDE SEQUENCES” (The Broad Institute, Inc., priority 2019, published 2023)

B1: 1024-CFN: intein-split PE with extein residues mutated to Npu-native CFN (protein)
chain: MKRTADGSEFESPKKKRKVIKIATRKYLGKQNVYDIGVERDHNFALKNGFIASNCFNEIGKATAKYFFYSNIMNFFKTEITLANGEIRKRPLIETNGETGEIVWDKGRDFATVRKVLSMPQVNIVKKTEVQTGGFSKESILPKRNSDKLIARKKDWDPKKYGGFDSPTVAYSVLVVAKVEKGKSKKLKSVKELLGITIMERSSFEKNPIDFLEAKGYKEVKKDLIIKLPKYSLFELENGRKRMLASAGELQKGNELALPSKYVNFLYLASHYEKLKGSPEDNEQKQLFVEQHKHYLDEIIEQISEFSKRVILADANLDKVLSAYNKHRDKPIREQAENIIHLFTLTNLGAPAAFKYFDTTIDRKRYTSTKEVLDATLIHQSITGLYETRIDLSQLGGDSGGSSGGSSGSETPGTSESATPESSGGSSGGSSTLNIEDEYRLHETSKEPDVSLGSTWLSDFPQAWAETGGMGLAVRQAPLIIPLKATSTPVSIKQYPMSQEARLGIKPHIQRLLDQGILVPCQSPWNTPLLPVKKPGTNDYRPVQDLREVNKRVEDIHPTVPNPYNLLSGLPPSHQWYTVLDLKDAFFCLRLHPTSQPLFAFEWRDPEMGISGQLTWTRLPQGFKNSPTLFNEALHRDLADFRIQHPDLILLQYVDDLLLAATSELDCQQGTRALLQTLGNLGYRASAKKAQICQKQVKYLGYLLKEGQRWLTEARKETVMGQPTPKTPRQLREFLGKAGFCRLFIPGFAEMAAPLYPLTKPGTLFNWGPDQQKAYQEIKQALLTAPALGLPDLTKPFELFVDEKQGYAKGVLTQKLGPWRRPVAYLSKKLDPVAAGWPPCLRMVAAIAVLTKDAGKLTMGQPLVILAPHAVEALVKQPPDRWLSNARMTHYQALLLDTDRVQFGPVVALNPATLLPLPEEGLQHNCLDILAEAHGTRPDLTDQPLPDADHTWYTDGSSLLQEGQRKAGAAVTTETEVIWAKALPAGTSAQRAELIALTQALKMAEGKKLNVYTDSRYAFATAHIHGEIYRRRGWLTSEGKEIKNKDEILALLKALFLPKRLSIIHCPGHQKGHSAEARGNRMADQAARKAAITETPDTSTLLIENSSPSGGSKRTADGSEFEPKKKRK
B2: 175-307 deletion: SpCas9 mutation relative to SEQ ID NO: 18 (protein)
chain: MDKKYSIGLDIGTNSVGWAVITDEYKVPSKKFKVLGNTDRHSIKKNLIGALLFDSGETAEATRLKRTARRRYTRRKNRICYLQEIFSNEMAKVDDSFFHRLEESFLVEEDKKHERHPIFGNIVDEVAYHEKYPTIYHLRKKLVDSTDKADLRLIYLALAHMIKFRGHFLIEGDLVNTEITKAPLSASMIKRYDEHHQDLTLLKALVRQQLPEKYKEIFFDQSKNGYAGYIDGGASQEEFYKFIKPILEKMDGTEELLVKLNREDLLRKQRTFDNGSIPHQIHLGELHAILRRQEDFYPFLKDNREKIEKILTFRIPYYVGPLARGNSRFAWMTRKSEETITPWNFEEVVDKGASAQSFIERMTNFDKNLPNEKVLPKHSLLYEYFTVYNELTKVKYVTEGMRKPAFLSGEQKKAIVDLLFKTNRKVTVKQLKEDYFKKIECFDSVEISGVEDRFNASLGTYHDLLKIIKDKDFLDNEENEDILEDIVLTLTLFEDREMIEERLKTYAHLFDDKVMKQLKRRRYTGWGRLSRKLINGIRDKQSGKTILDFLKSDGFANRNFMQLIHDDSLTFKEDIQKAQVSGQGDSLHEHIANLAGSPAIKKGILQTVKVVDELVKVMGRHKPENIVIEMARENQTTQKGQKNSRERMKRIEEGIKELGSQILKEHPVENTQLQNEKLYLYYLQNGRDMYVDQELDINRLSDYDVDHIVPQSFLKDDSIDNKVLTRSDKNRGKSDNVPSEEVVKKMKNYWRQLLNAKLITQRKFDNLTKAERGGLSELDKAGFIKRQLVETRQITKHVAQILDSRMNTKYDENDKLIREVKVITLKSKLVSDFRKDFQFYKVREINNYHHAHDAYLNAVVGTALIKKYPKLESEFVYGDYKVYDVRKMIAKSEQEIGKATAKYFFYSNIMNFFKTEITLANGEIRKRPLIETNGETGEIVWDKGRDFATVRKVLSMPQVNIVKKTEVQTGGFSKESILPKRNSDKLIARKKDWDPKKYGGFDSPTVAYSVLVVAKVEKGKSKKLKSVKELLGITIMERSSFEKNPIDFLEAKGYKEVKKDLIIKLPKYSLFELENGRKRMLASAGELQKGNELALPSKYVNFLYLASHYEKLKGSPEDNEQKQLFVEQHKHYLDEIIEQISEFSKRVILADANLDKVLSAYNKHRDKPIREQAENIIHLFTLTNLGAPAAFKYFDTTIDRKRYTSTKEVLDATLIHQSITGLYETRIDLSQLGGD
modifications: Streptococcus pyogenes

How the values were obtained:
HEK cells = experiment: Npu intein-split prime editors, plasmid transfection of HEK cells, high-throughput sequencing; assay type: cell-based; conditions: plasmids, split site 1023/1024
Excerpt: This Example is focused on a PE fusion protein comprising the canonical SpCas9 (SEQ ID NO: 18). The split sites for other Cas9 proteins may be the corresponding same site, or may need to be optimized for each different Cas9 protein. In the instant Example, the prime editor was split between residues 1023 and 1024 of SpCas9 (SEQ ID NO: 18). This is referred to as the “1023/1024” split site.
Prime editors (PEs) exceed the AAV packaging capacity.
It was therefore determined whether mutation from the Cas9-native “SEQ” towards the Npu intein “CFN” sequence altered efficiency of prime editing.

DNA = conditions: mutation relative to canonical SpCas9, SEQ ID NO: 18; cited from earlier work

| Molecule | prime editing activity compared with full-length PE3 (HEK cells) | decreased DNA cleavage (DNA) |
| --- | --- | --- |
| B1 | recapitulates full-length PE3 activity |  |
| B2 |  | About 50% decreased DNA cleavage |
